According to paper PMC11094781 (Protein Science : A Publication of the Protein Society, 2024):
One block for each compound: values may come before it.

What was measured:
[1] = molecular target: T1, TkTusA (Thioalkalivibrio sp. K90mix, UniProt D3SF79); assay: MALDI-TOF mass shift; format: biochemical; conditions: […] tetrathionate, […] Tris-HCl pH […]; covalent
T1 sequence (D3SF79 2-76): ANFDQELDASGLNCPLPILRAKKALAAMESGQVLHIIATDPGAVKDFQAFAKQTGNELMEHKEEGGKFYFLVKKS

[2] = molecular target: DsrE3B from Thioalkalivibrio sp. K90mix (Thioalkalivibrio sp. K90mix); assay: SEC
[3] = molecular target: DsrE3C from Hyphomicrobium denitrificans (Hyphomicrobium denitrificans); assay: SEC

Compound: O=S(=O)(O)SSS(=O)(=O)O [tetrathionate]
- MALDI-TOF mass shift [1]: TusA proteins from bacteria that were examined in this study displayed reaction with tetrathionate

Compound: DsrE3B from Thioalkalivibrio sp. K90mix (natural protein)
- stoichiometry N [2]: 3

- stoichiometry N [3]: 3
Compound: DsrE3C from Hyphomicrobium denitrificans (natural protein)
